Source: paper PMC11500311, “Binding of a single nitric oxide molecule is sufficient to disrupt DNA binding of the nitrosative stress regulator NsrR†” (Chemical Science, 2024)

Columns and labels:
[1] = target: T1, holo NsrR ([4Fe-4S] in each subunit) (Streptomyces coelicolor, UniProt Q9L132 1-148); assay: native MS; about equal free and DNA-bound holo NsrR before NO; SPR: 10 mM HEPES, 150 mM NaCl, 0.05% polysorbate 20, pH 7.4, 25 C, anaerobic; native MS: 100 mM ammonium acetate pH 8 (30 C for nitrosylation); conditions: protein: recombinant; tags: none; chain copies: 2; blunt
T1 sequence: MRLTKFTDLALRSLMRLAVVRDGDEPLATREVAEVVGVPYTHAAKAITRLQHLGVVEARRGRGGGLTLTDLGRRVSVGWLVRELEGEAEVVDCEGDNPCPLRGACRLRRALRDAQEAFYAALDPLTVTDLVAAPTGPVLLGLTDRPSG

[2] = target: the molecule itself; assay: native MS; as-isolated and reconstituted NsrR, 8 μM [4Fe–4S], ionised from 100 mM ammonium acetate pH 8.0, positive-mode ESI, no DNA
[3] = target: T1, holo NsrR ([4Fe-4S] in each subunit); assay: native MS; 100 mM ammonium acetate pH 8; relative affinity; SPR: 10 mM HEPES, 150 mM NaCl, 0.05% polysorbate 20, pH 7.4, 25 C, anaerobic; native MS: 100 mM ammonium acetate pH 8 (30 C for nitrosylation); conditions: protein: recombinant; tags: none; chain copies: 2; blunt

B1: hmpA2 23 bp native MS (dsDNA)
DNA 1: AACAAGCATCTGAGATCCCAGTT
DNA 2: AACTGGGATCTCAGATGCTTGTT
- binding result [1]: binds

B2: NsrR from Streptomyces coelicolor, non-tagged (natural protein)
chain: MRLTKFTDLALRSLMRLAVVRDGDEPLATREVAEVVGVPYTHAAKAITRLQHLGVVEARRGRGGGLTLTDLGRRVSVGWLVRELEGEAEVVDCEGDNPCPLRGACRLRRALRDAQEAFYAALDPLTVTDLVAAPTGPVLLGLTDRPSG
notes: NsrR, Rrf2-family transcriptional regulator of Streptomyces coelicolor A3, locus SCO7427; non-tagged construct from pNsrR; Homodimer; Each subunit can carry a [4Fe–4S] cluster: two clusters per dimer is holo, one is hemi-apo, none is apo; All three forms were observed as dimers by native MS (32 608, 32 257 and 31 907 Da); also called non-tagged NsrR; [4Fe–4S]; NsrR; source: E. coli BL21 λDE3 …
- stoichiometry N [2]: 2

B3: hmpA1 22 bp native MS (dsDNA)
DNA 1: AACACGAATATCATCTACCAAT
DNA 2: ATTGGTAGATGATATTCGTGTT
- Kd [3]: 3000 ± 100 nM
